# Reference: article PMC12124961
# Key:
# [1] = target: Bxb1 gp19, tail tube protein (Mycobacteriophage Bxb1); test: cryo-EM structure
# [2] = target: Bxb1 gp31, tail wing arm (Mycobacteriophage Bxb1); test: cryo-EM structure
Substance,stoichiometry N [1],stoichiometry N [2]
"Bxb1 gp19, tail tube protein (natural protein)",6,
"Bxb1 gp31, tail wing arm (natural protein)",,2
